Measurements from patent US20230365675A1 (published 2023).

B1: sdCD33_10 (VHH)
VHH: QVQLVETGGGLVRAGGSLRLSCAASGRTADIYNIGWFRQAPGKEREFVAAITWIGRTPYYADAVKGRFAFSTDSAKNTVSLQMDNLKPEDTGVYYCNAAHYLEGNTDYYWGQGTQVTVSS
B2: sdCD33_2 (VHH)
VHH: QVQLVQPGGSLRLFCVASEEFFSIYAMGWYRQAPGKQHEMVARFTRDGKITYADSAKGRFTITRDAKNTLNLQMNGLIPEDTAVYYCNINHYWGQGTQVTVSS
B3: sdCD33_3 (VHH)
VHH: DVQLVESGGGLVQPGGSLRLSCSVSGNIDRFYAMGWYRQAPGKQRELVAQLTNNEITTYGDSVEGQFSISGDFDANTVYLQMDSLKPEDTAVYYCHAHVTTTRWSQDYYWGQGTRVTVSS
B4: sdCD33_4 (VHH)
VHH: QVKLEESGGGSVQAGESLRLSCTASGITFRDYDIDWYRQAPGKEREWLATITPSGTTHYPDSVKGRATISRDSAKNTVYLQMNSLKPEDTARYECNTLAYWGSGTQVTVSS
B5: Anti-CD33 CAR 6 (other)
chain: QVQLVETGGGLVRAGGSLRLSCAASGRTADIYNIGWFRQAPGKEREFVAAITWIGRTPYYADAVKGRFAFSTDSAKNTVSLQMDNLKPEDTGVYYCNAAHYLEGNTDYYWGQGTQVTVSSAAATTTPAPRPPTPAPTIASQPLSLRPEACRPAAGGAVHTRGLDFACDIYIWAPLAGTCGVLLLSLVITLYCKRGRKKLLYIFKQPFMRPVQTTQEEDGCSCRFPEEEEGGCELRVKFSRSADAPAYQQGQNQLYNELNLGRREEYDVLDKRRGRDPEMGGKPRRKNPQEGLYNELQKDKMAEAYSEIGMKGERRRGKGHDGLYQGLSTATKDTYDALHMQALPPR

Key:
[1] = biological target: CD33-GFP fusion protein, wild type (WT), on 293FT cells (UniProt P20138); experiment: FACS, WT CD33-GFP on 293FT cells
Sequence of CD33-GFP fusion protein, wild type (WT), on 293FT cells (P20138 18-364): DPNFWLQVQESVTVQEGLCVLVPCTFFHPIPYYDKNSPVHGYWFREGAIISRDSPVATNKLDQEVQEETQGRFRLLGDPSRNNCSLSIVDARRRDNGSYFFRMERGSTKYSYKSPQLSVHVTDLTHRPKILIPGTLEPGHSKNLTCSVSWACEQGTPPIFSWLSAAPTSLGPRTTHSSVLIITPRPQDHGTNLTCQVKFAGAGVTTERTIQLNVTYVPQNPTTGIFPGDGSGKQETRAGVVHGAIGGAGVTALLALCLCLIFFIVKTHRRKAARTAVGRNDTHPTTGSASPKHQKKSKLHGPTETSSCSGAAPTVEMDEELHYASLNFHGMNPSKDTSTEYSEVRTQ

[2] = biological target: Mutant CD33-GFP JS23 (L23N) on 293FT cells (UniProt P20138); experiment: FACS, mutant CD33-GFP on 293FT cells
Sequence of Mutant CD33-GFP JS23 (L23N) on 293FT cells (P20138 18-364 L23N): as the sequence (P20138 18-364) above, with L6N counted along it

[3] = biological target: Mutant CD33-GFP JS24 (Q24E) on 293FT cells (UniProt P20138); experiment: FACS, mutant CD33-GFP on 293FT cells
Sequence of Mutant CD33-GFP JS24 (Q24E) on 293FT cells (P20138 18-364 Q24E): as the sequence (P20138 18-364) above, with Q7E counted along it

[4] = biological target: Mutant CD33-GFP JS25 (V25M) on 293FT cells (UniProt P20138); experiment: FACS, mutant CD33-GFP on 293FT cells
Sequence of Mutant CD33-GFP JS25 (V25M) on 293FT cells (P20138 18-364 V25M): as the sequence (P20138 18-364) above, with V8M counted along it

[5] = biological target: Mutant CD33-GFP JS28 (S28L) on 293FT cells (UniProt P20138); experiment: FACS, mutant CD33-GFP on 293FT cells
Sequence of Mutant CD33-GFP JS28 (S28L) on 293FT cells (P20138 18-364 S28L): as the sequence (P20138 18-364) above, with S11L counted along it

[6] = biological target: Mutant CD33-GFP M10 (Y127A) on 293FT cells (UniProt P20138); experiment: FACS, mutant CD33-GFP on 293FT cells
Sequence of Mutant CD33-GFP M10 (Y127A) on 293FT cells (P20138 18-364 Y127A): as the sequence (P20138 18-364) above, with Y110A counted along it

[7] = biological target: Mutant CD33-GFP M11 (L78T) on 293FT cells (UniProt P20138); experiment: FACS, mutant CD33-GFP on 293FT cells
Sequence of Mutant CD33-GFP M11 (L78T) on 293FT cells (P20138 18-364 L78T): as the sequence (P20138 18-364) above, with L61T counted along it

[8] = biological target: Mutant CD33-GFP M12 (G88S) on 293FT cells (UniProt P20138); experiment: FACS, mutant CD33-GFP on 293FT cells
Sequence of Mutant CD33-GFP M12 (G88S) on 293FT cells (P20138 18-364 G88S): as the sequence (P20138 18-364) above, with G71S counted along it

[9] = biological target: Mutant CD33-GFP M13 (R91E) on 293FT cells (UniProt P20138); experiment: FACS, mutant CD33-GFP on 293FT cells
Sequence of Mutant CD33-GFP M13 (R91E) on 293FT cells (P20138 18-364 R91E): as the sequence (P20138 18-364) above, with R74E counted along it

[10] = biological target: Mutant CD33-GFP M14 (E170R) on 293FT cells (UniProt P20138); experiment: FACS, mutant CD33-GFP on 293FT cells
Sequence of Mutant CD33-GFP M14 (E170R) on 293FT cells (P20138 18-364 E170R): as the sequence (P20138 18-364) above, with E153R counted along it

[11] = biological target: Mutant CD33-GFP M15 (Q171A) on 293FT cells (UniProt P20138); experiment: FACS, mutant CD33-GFP on 293FT cells
Sequence of Mutant CD33-GFP M15 (Q171A) on 293FT cells (P20138 18-364 Q171A): as the sequence (P20138 18-364) above, with Q154A counted along it

[12] = biological target: Mutant CD33-GFP M16 (4889AII) on 293FT cells (UniProt P20138); experiment: FACS, mutant CD33-GFP on 293FT cells
[13] = biological target: Mutant CD33-GFP M17 (F21Y) on 293FT cells (UniProt P20138); experiment: FACS, mutant CD33-GFP on 293FT cells
Sequence of Mutant CD33-GFP M17 (F21Y) on 293FT cells (P20138 18-364 F21Y): as the sequence (P20138 18-364) above, with F4Y counted along it

[14] = biological target: Mutant CD33-GFP M18 (353AAL) on 293FT cells (UniProt P20138); experiment: FACS, mutant CD33-GFP on 293FT cells
[15] = biological target: Mutant CD33-GFP M19 (348ATAI) on 293FT cells (UniProt P20138); experiment: FACS, mutant CD33-GFP on 293FT cells
[16] = biological target: Mutant CD33-GFP M4 (R122D) on 293FT cells (UniProt P20138); experiment: FACS, mutant CD33-GFP on 293FT cells
Sequence of Mutant CD33-GFP M4 (R122D) on 293FT cells (P20138 18-364 R122D): as the sequence (P20138 18-364) above, with R105D counted along it

[17] = biological target: Mutant CD33-GFP M5 (AEAD), quadruple mutant, on 293FT cells (UniProt P20138); experiment: FACS, mutant CD33-GFP on 293FT cells
Sequence of Mutant CD33-GFP M5 (AEAD), quadruple mutant, on 293FT cells (P20138 other isoform, or with tags, fused parts or gaps mutant): as the sequence (P20138 18-364) above, with W5A, H28E, N82A, R105D counted along it

[18] = biological target: Mutant CD33-GFP M9 (Y49, 50A) on 293FT cells (UniProt P20138); experiment: FACS, mutant CD33-GFP on 293FT cells
Sequence of Mutant CD33-GFP M9 (Y49, 50A) on 293FT cells (P20138 other isoform, or with tags, fused parts or gaps mutant): as the sequence (P20138 18-364) above, with Y32A, Y33A counted along it

[19] = biological target: Mutant CD33-GFP N20D on 293FT cells (UniProt P20138); experiment: FACS, mutant CD33-GFP on 293FT cells
Sequence of Mutant CD33-GFP N20D on 293FT cells (P20138 18-364 N20D): as the sequence (P20138 18-364) above, with N3D counted along it

[20] = biological target: T1, Mutant CD33-GFP M1 (W22A) on 293FT cells (UniProt P20138 18-364); experiment: FACS, mutant CD33-GFP on 293FT cells
T1 construct: whole, on cells; not shown: GFP fused to CD33
T1 sequence (P20138 18-364 W22A): as the sequence (P20138 18-364) above, with W5A counted along it

[21] = biological target: T2, Mutant CD33-GFP M2 (H45E) on 293FT cells (UniProt P20138 18-364); experiment: FACS, mutant CD33-GFP on 293FT cells
T2 construct: whole, on cells; not shown: GFP fused to CD33
T2 sequence (P20138 18-364 H45E): as the sequence (P20138 18-364) above, with H28E counted along it

[22] = biological target: T3, Mutant CD33-GFP M3 (N99A) on 293FT cells (UniProt P20138 18-364); experiment: FACS, mutant CD33-GFP on 293FT cells
T3 construct: whole, on cells; not shown: GFP fused to CD33
T3 sequence (P20138 18-364 N99A): as the sequence (P20138 18-364) above, with N82A counted along it

[23] = biological target: T4, Mutant CD33-GFP M6 (F43N) on 293FT cells (UniProt P20138 18-364); experiment: FACS, mutant CD33-GFP on 293FT cells
T4 construct: whole, on cells; not shown: GFP fused to CD33
T4 sequence (P20138 18-364 F43N): as the sequence (P20138 18-364) above, with F26N counted along it

[24] = biological target: T5, Mutant CD33-GFP M7 (R98D) on 293FT cells (UniProt P20138 18-364); experiment: FACS, mutant CD33-GFP on 293FT cells
T5 construct: whole, on cells; not shown: GFP fused to CD33
T5 sequence (P20138 18-364 R98D): as the sequence (P20138 18-364) above, with R81D counted along it

[25] = biological target: T6, Mutant CD33-GFP M8 (K52A) on 293FT cells (UniProt P20138 18-364); experiment: FACS, mutant CD33-GFP on 293FT cells
T6 construct: whole, on cells; not shown: GFP fused to CD33
T6 sequence (P20138 18-364 K52A): as the sequence (P20138 18-364) above, with K35A counted along it

[26] = biological target: Biotinylated CD33 protein (UniProt P20138); experiment: Octet competition on biotinylated CD33; competitor 348
Sequence of Biotinylated CD33 protein (P20138 18-259 limits assumed): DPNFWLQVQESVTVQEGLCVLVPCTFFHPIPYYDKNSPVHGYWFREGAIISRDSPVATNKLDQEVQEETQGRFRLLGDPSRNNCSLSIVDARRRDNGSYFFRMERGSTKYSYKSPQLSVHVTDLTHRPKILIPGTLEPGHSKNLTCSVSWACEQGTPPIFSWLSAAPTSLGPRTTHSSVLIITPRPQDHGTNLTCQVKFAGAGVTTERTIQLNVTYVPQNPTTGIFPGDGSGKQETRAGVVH

[27] = biological target: Biotinylated CD33 protein (UniProt P20138); experiment: Octet competition on biotinylated CD33; competitor 353
[28] = biological target: Biotinylated CD33 protein (UniProt P20138); experiment: Octet competition on biotinylated CD33; competitor 389
[29] = biological target: Biotinylated CD33 protein (UniProt P20138); experiment: Octet competition on biotinylated CD33; competitor 413
[30] = biological target: Biotinylated CD33 protein (UniProt P20138); experiment: Octet competition on biotinylated CD33; competitor 416
[31] = biological target: Biotinylated CD33 protein (UniProt P20138); experiment: Octet competition on biotinylated CD33; competitor 420
[32] = biological target: Biotinylated CD33 protein (UniProt P20138); experiment: Octet competition on biotinylated CD33; competitor 424
[33] = biological target: Biotinylated CD33 protein (UniProt P20138); experiment: Octet competition on biotinylated CD33; competitor 426
[34] = biological target: Biotinylated CD33 protein (UniProt P20138); experiment: Octet competition on biotinylated CD33; competitor 430
[35] = biological target: Biotinylated CD33 protein (UniProt P20138); experiment: Octet competition on biotinylated CD33; competitor h195
[36] = biological target: Biotinylated CD33 protein (UniProt P20138); experiment: Octet competition on biotinylated CD33; competitor 429
CD33 on MOLM-13 cells = CD33 on MOLM-13 cells (human, UniProt P20138 18-364); experiment: cell-based or functional assay
Sequence of CD33 on MOLM-13 cells (P20138 18-364): as the sequence (P20138 18-364) above

Molecule	FACS binding data [1]	FACS binding data [2]	FACS binding data [3]	FACS binding data [4]	FACS binding data [5]	FACS binding data [6]	FACS binding data [7]	FACS binding data [8]	FACS binding data [9]	FACS binding data [10]	FACS binding data [11]	FACS binding data [12]	FACS binding data [13]	FACS binding data [14]	FACS binding data [15]	FACS binding data [16]	FACS binding data [17]	FACS binding data [18]	FACS binding data [19]	FACS binding data [20]	other results
hu195 (antibody)	97.8	–	–	–	–	–	–	–	–	–	–	–	–	–	–	–	–	–	–	–	–
B1	98	98.4	98.2	99.6	99.6	93.9	67.3	98.6	98.5	98.4	98.9	98.6	94.1	15.6	98.3	21.1	0.12	0.22	96.6	99.1	FACS binding data [21]: 65.5; FACS binding data [22]: 99; FACS binding data [23]: 97.6; FACS binding data [24]: 97.1; FACS binding data [25]: 66.1; Octet signal [26]: 0.616; Octet signal [27]: 1.01; Octet signal [28]: 1.16; Octet signal [29]: 0.865; Octet signal [30]: 0.552; Octet signal [31]: 0.95; Octet signal [32]: 0.628; Octet signal [33]: 0.543; Octet signal [34]: 1.44; Octet signal [35]: 1.37
B2	98.3	95.4	98.8	99.3	99.5	98.5	33.4	98.2	98.6	98.2	98.7	98.4	98.9	97.3	99	1.43	0.41	0.39	98.9	8.08	FACS binding data [21]: 2.54; FACS binding data [22]: 81.9; FACS binding data [23]: 95.3; FACS binding data [24]: 0.48; FACS binding data [25]: 91.2; Octet signal [27]: 0.322; Octet signal [28]: 0.584; Octet signal [29]: 0.623; Octet signal [30]: 0.0635; Octet signal [31]: 0.381; Octet signal [32]: 0.0143; Octet signal [33]: 0.158; Octet signal [36]: 0.0422; Octet signal [34]: 0.651; Octet signal [35]: 0.799
B3	98.3	99.1	99.4	99.7	99.6	96.3	78	99	98.7	98.7	98.2	98.4	98.2	99	99.6	98.5	0.31	0.64	98.7	99.4	FACS binding data [21]: 98.8; FACS binding data [22]: 99.4; FACS binding data [23]: 99; FACS binding data [24]: 98.8; FACS binding data [25]: 97.3; Octet signal [26]: 0.0077; Octet signal [28]: 0.152; Octet signal [29]: 0.0204; Octet signal [30]: -0.0696; Octet signal [31]: -0.0387; Octet signal [32]: -0.108; Octet signal [33]: -0.0122; Octet signal [36]: -0.13; Octet signal [34]: 0.231; Octet signal [35]: 0.295
B4	98.4	99	99.3	99.5	99.6	97.2	62.8	99	99.1	98.8	98.8	98.7	98.5	99.5	99.6	6.01	0.16	97.4	98.5	99.3	FACS binding data [21]: 84.4; FACS binding data [22]: 97; FACS binding data [23]: 98.3; FACS binding data [24]: 21.5; FACS binding data [25]: 0.15; Octet signal [26]: -0.146; Octet signal [27]: -0.101; Octet signal [29]: -0.0267; Octet signal [30]: -0.28; Octet signal [31]: -0.0649; Octet signal [32]: -0.271; Octet signal [33]: -0.137; Octet signal [36]: -0.26; Octet signal [34]: 0.0905; Octet signal [35]: 0.355
B5	–	–	–	–	–	–	–	–	–	–	–	–	–	–	–	–	–	–	–	–	Ratio (CD33 on MOLM-13 cells): 3.6; Testing FP2 Expression (CD33+) (CD33 on MOLM-13 cells): 22.9 % of constitutive-fluorescence-positive cells
